T1: FOXM1 (endogenous) (human (endogenous in MDA-MB-231 and …, UniProt Q08050 1-763))
T1 sequence: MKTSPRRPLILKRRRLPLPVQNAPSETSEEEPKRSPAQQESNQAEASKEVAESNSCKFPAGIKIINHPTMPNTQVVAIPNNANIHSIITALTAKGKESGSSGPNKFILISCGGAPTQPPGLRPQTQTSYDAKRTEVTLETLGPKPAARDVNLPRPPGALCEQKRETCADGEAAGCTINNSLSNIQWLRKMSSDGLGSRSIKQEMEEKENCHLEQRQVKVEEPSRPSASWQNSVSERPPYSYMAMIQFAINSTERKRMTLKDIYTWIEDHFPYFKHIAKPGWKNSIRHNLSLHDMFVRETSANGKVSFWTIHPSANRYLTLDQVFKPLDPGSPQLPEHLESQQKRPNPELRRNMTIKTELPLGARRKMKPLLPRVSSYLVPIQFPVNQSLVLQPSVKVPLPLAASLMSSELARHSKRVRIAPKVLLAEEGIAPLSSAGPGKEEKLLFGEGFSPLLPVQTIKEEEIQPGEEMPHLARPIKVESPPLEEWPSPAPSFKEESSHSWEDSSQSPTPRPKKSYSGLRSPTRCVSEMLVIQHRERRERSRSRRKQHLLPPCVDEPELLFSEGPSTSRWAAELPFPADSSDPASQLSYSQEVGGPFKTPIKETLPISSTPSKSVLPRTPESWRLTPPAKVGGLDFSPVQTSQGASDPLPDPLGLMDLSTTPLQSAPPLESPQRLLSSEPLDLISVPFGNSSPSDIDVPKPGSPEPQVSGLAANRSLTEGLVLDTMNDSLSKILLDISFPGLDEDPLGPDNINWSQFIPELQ

T2: FOXM1 full-length (UniProt Q08050-2 1-748)
T2 sequence: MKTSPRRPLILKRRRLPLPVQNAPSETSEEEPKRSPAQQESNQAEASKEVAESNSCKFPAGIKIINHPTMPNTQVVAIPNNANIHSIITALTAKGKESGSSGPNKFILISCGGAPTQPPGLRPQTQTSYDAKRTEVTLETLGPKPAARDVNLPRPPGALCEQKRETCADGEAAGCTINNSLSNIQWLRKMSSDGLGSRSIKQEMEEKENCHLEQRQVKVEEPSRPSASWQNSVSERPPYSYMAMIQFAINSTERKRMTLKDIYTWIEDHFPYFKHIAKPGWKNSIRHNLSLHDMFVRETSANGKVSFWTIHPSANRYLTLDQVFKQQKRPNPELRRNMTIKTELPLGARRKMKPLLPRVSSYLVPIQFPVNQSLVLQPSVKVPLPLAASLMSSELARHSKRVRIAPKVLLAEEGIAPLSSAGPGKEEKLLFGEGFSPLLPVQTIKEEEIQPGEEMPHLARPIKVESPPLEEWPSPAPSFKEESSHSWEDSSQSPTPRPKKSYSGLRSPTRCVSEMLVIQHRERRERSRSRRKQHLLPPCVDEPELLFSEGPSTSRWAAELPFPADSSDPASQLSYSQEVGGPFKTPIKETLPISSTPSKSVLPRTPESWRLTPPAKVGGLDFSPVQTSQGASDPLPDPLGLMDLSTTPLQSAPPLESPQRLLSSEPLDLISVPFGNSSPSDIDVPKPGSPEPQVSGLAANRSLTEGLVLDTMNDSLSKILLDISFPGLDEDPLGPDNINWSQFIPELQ

T3: FOXM1 full-length;M1-138 (6xHis-FOXM1(1-138)-R9) (human?;human?, UniProt Q08050-2;Q08050-2 1-748;1-138, |)
T3 sequence 1: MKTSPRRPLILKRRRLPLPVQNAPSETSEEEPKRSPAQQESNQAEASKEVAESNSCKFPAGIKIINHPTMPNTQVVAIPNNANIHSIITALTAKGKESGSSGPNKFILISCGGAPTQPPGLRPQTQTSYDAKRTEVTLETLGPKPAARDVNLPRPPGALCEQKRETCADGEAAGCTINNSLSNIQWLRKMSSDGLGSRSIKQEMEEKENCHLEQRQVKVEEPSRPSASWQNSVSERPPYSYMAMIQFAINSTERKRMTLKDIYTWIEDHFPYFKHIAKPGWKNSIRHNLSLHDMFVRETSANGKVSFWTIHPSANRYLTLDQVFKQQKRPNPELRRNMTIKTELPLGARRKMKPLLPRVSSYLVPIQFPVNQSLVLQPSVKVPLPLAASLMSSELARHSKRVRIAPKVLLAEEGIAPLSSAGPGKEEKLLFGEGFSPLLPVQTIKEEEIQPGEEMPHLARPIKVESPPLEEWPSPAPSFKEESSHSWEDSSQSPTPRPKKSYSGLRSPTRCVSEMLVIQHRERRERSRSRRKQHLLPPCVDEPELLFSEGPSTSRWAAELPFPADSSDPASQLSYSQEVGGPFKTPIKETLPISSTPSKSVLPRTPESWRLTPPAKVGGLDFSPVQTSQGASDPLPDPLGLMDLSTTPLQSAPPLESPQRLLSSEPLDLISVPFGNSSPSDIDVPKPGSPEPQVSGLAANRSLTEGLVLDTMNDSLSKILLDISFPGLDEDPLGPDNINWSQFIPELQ
T3 sequence 2: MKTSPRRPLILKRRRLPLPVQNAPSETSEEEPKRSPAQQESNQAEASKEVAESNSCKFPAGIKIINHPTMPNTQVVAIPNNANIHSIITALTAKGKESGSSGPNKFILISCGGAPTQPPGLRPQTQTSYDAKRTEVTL


Assays:
FOXM1 (endogenous) = target: T1, FOXM1 (endogenous); experiment: cell-based or functional assay
FOXM1 full-length = target: T2, FOXM1 full-length; experiment: EMSA
[1] = target: T3, FOXM1 full-length;M1-138 …; experiment: EMSA

Binder	IC50 of cell viability (CCK-8), A549 cells, 12 h treatment (FOXM1 (endogenous))	IC50 of cell viability (CCK-8), Hela cells, 12 h treatment (FOXM1 (endogenous))	IC50 of cell viability (CCK-8), HepG2 cells, 12 h treatment (FOXM1 (endogenous))	IC50 of cell viability (CCK-8), MCF-7 cells, 12 h treatment (FOXM1 (endogenous))	IC50 of cell viability (CCK-8), MDA-MB-231 cells, 12 h treatment (FOXM1 (endogenous))	binding result (FOXM1 full-length)	binding result [1]
M1-138 (recombinant FOXM1 N-terminal domain (1-138aa) fused with a nine arginine cell-penetrating peptide) (domain or fragment) MKTSPRRPLILKRRRLPLPVQNAPSETSEEEPKRSPAQQESNQAEASKEVAESNSCKFPAGIKIINHPTMPNTQVVAIPNNANIHSIITALTAKGKESGSSGPNKFILISCGGAPTQPPGLRPQTQTSYDAKRTEVTLRRRRRRRRR	5.3 µM	8.9 µM	13.8 µM	17.9 µM	7.8 µM	–	–
FAM-labeled FOXM1 dsDNA probe (Hot) (dsDNA) DNA 1: TTTGTTTATTTGTTTGTTTATTTG DNA 2: CAAATAAACAAACAAATAAACAAA	–	–	–	–	–	binds	binds

— PMC6568178 (Theranostics, 2019)
